Consider 13 molecules from patent US20200282035A1 (MILTENYI BIOTEC B V, published 2020).

Test [1] deals with T1, CD66c (human, UniProt P40199 35-320).
T1 construct: whole, on cells
T1 sequence (looked up): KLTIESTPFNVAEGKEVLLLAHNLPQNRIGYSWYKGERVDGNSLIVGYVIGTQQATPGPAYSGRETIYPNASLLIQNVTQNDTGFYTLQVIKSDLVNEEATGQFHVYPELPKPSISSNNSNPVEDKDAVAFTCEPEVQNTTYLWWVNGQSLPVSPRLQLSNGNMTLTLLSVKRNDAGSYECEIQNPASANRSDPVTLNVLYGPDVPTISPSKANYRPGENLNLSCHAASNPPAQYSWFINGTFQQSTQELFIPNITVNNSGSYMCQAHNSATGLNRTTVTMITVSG
The experiment in a line: scFv as binding domain of a CAR on T cells; told in words only, no direct binding assay.

Test [2] deals with T2, CD318 (human, UniProt Q9H5V8 30-836).
T2 construct: whole, on cells
T2 sequence (looked up): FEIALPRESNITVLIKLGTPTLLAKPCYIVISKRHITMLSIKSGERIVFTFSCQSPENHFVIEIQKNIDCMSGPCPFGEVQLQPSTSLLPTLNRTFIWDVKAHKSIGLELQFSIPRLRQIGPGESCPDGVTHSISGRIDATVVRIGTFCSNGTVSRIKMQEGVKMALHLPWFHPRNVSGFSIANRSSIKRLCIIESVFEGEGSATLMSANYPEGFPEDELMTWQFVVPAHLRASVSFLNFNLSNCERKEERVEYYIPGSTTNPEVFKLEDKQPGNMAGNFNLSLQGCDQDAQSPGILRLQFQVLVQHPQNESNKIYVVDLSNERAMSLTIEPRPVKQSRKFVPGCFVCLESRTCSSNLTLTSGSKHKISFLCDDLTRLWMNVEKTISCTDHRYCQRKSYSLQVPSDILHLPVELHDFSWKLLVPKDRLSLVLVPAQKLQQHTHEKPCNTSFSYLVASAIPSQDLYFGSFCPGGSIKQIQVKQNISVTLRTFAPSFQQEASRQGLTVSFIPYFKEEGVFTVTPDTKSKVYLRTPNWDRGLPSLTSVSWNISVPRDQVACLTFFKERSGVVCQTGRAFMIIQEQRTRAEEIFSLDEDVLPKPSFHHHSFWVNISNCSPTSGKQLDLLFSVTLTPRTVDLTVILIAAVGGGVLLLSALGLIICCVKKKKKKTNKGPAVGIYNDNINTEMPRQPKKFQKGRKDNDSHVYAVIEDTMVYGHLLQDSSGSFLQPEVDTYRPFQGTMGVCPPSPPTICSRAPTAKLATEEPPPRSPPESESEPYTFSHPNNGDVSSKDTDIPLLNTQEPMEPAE
Described as above.

Test [3] deals with T1, CD66c. The test is described as follows: antibody used for staining of human pancreatic cancer cells (flow cytometry, immunohistochemistry; Example 1); told in words only.
In test [4] the target is T3, CD142 (human, UniProt P13726 33-295).
T3 construct: whole, on cells
The experiment in a line: scFv as binding domain of a CAR on T cells; told in words only, no direct binding assay.

The target of test [5] is T4, CD73 (human, UniProt P21589 27-549).
T4 construct: whole, on cells
T4 sequence (looked up): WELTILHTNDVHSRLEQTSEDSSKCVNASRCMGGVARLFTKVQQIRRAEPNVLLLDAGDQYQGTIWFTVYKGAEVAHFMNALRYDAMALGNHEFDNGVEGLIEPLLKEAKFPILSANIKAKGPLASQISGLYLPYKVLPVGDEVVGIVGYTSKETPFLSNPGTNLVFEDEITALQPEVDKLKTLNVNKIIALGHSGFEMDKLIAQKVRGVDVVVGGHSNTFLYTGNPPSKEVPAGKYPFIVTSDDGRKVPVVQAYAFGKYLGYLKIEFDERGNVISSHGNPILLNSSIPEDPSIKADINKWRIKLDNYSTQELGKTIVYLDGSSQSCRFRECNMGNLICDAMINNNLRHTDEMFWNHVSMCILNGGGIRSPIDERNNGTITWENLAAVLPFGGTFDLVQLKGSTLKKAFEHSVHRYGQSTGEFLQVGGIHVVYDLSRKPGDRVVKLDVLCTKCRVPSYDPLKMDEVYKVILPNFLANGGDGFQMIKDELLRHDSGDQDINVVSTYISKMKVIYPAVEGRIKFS
Described as above.

In test [6] the target is T5, TSPAN8 (human, UniProt P19075 1-237).
T5 construct: whole, on cells
T5 sequence (looked up): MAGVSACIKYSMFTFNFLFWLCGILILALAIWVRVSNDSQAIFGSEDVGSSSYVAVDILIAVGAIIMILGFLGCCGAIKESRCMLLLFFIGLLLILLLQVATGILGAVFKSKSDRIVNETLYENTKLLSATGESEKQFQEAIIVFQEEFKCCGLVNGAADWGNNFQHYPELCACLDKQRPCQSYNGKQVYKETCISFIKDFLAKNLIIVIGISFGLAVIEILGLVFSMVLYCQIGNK
The description is as above.

Test [7] deals with T4, CD73. The test is described as follows: antibody used for staining of human pancreatic cancer cells (flow cytometry, immunohistochemistry; Example 1); told in words only.
The target of test [8] is T3, CD142. Described as above.

B1: CD66c specific CAR sequence VL-linker-VH (scFv)
scFv: DIVMTQSQKFMSTSVGDRVSVTCKASQNVVTNVAWYQQTPGQSPKALIYSASYRYSGVPDRFSGSGSGTDFTLTISNVQSGDLAEYFCQQYNSYPLTFGAGTKLELKGGGGSGGGGSGGGGSQVTLKESGPGILKPSQTLSLTCSFSGFSLSTSGMGVGWIRQPSGKSLEWLAHIWWNDERYYNPSLKNQLTISKDTSRNQVFLKITSVDTADTATYYCARSPRGYFDYWGHGTTLTVSS
notes: not shown: hinge, transmembrane and signalling domains of the CAR
For B1, in test [1], the binding result was “binds”.

B2: CD318 specific CAR sequence VH-linker-VL (scFv)
scFv: EVQLQQSGAELVRPGALVKLSCKASGFNIKDYYIHWVKQRPEQGLEWIGWIDPENGHTIYDPKFQGKASITADTSSNTAYLQLSSLTSEDTAVYYCARLTGTTYAMDYWGQGTSVTVSSGGGGSGGGGSGGGGSDIVMTQSHKFMSTSVGDRVSITCKASQDVSTAVAWYQQKSGQSPKLLIYWASTRHTGVPDRFTGSGSGTDYTLTISSVQAEDLALYYCQQHYSTPYTFGGGTKLEIK
notes: as for B1
On to B2, for which the binding result in test [2] is reported as “binds”.

B3: CD318 specific CAR sequence VL-linker-VH (scFv)
scFv: DIVMTQSHKFMSTSVGDRVSITCKASQDVSTAVAWYQQKSGQSPKLLIYWASTRHTGVPDRFTGSGSGTDYTLTISSVQAEDLALYYCQQHYSTPYTFGGGTKLEIKGGGGSGGGGSGGGGSEVQLQQSGAELVRPGALVKLSCKASGFNIKDYYIHWVKQRPEQGLEWIGWIDPENGHTIYDPKFQGKASITADTSSNTAYLQLSSLTSEDTAVYYCARLTGTTYAMDYWGQGTSVTVSS
notes: as for B1
With B3, the binding result in test [2] is on record as “binds”.

B4: CD66c specific antibody (antibody, V domains shown)
VH: QVTLKESGPGILKPSQTLSLTCSFSGFSLSTSGMGVGWIRQPSGKSLEWLAHIWWNDERYYNPSLKNQLTISKDTSRNQVFLKITSVDTADTATYYCARSPRGYFDYWGHGTTLTVSS
VL: DIVMTQSQKFMSTSVGDRVSVTCKASQNVVTNVAWYQQTPGQSPKALIYSASYRYSGVPDRFSGSGSGTDFTLTISNVQSGDLAEYFCQQYNSYPLTFGAGTKLELK
notes: also called CD66c VH
With B4, the binding result in test [3] is “binds”.

B5: CD142 specific CAR sequence VH-linker-VL (scFv)
scFv: QVQLKQSGPGLVQPSQSLSITCTVSGFSLSNYGVHWVRQSPGKGLEWLGVIWSGGSTDYNVAFISRLIITKDNSKSQVFLKMNSLQADDTAIYFCARTTGSVFNAMDHWGQGTSVTVSSGGGGSGGGGSGGGGSQIVLTQSPALMSASPGEKVTMTCSASSSVTYMYWYQQKPRSSPKPWIYLTSNLASGVPARFSGSGSGTSYSLTISSVEAEDAATYYCQQWSSNPLTFGAGTKLELK
notes: as for B1
Consider B5, for which the binding result in test [4] is recorded as “binds”.

B6: CD73 specific CAR sequence VL-linker-VH (scFv)
scFv: DIVMTQSHKFMSTSVGDRVSITCKASQDVGSAVAWYQQKPGQSPKLLIYWASTRHTGVPDRFTGSGSGTDFTLTISNVQSEDLADYFCQQYSSYPLTFGAGTKLELKGGGGSGGGGSGGGGSEVQLQQSGAELVKPGASVKLSCTASGFNIKDTYIHWVKQRPEQGLEWIGRIDPATGNTEYDPKFQGKATITADTSSNTAYLHLSSLTSEDTAVYYCARGYYGSSYPPWFAYWGQGTLVTVSA
notes: as for B1
As for B6, in test [5], the binding result is “binds”.

B7: CD142 specific CAR sequence VL-linker-VH (scFv)
scFv: QIVLTQSPALMSASPGEKVTMTCSASSSVTYMYWYQQKPRSSPKPWIYLTSNLASGVPARFSGSGSGTSYSLTISSVEAEDAATYYCQQWSSNPLTFGAGTKLELKGGGGSGGGGSGGGGSQVQLKQSGPGLVQPSQSLSITCTVSGFSLSNYGVHWVRQSPGKGLEWLGVIWSGGSTDYNVAFISRLIITKDNSKSQVFLKMNSLQADDTAIYFCARTTGSVFNAMDHWGQGTSVTVSS
notes: as for B1
Take B7: the binding result in test [4] is “binds”.

B8: TSPAN8 specific CAR sequence VH-linker-VL (scFv)
scFv: EVKLLESGGGLVQPGGSMRLSCAASGFTFTDFYMNWIRQPAGKAPEWLGFIRNKASGYTTEYNPSVKGRFTISRDNTQNMLYLQMNTLRAEDTATYYCARAHSYYGYDYFDYWGQGVMVTVSSGGGGSGGGGSGGGGSDIQMTQSPASLSASLEEIVTITCQASQDIGNWLSWYQQKPGKSPQLLIYGATSLADGVPSRFSGSRSGTQYSLKISRLQVEDIRIYYCLQAYSAPWTFGGGTKLELK
notes: as for B1
As to B8, the binding result in test [6] is “binds”.

B9: CD73 specific CAR sequence VH-linker-VL (scFv)
scFv: EVQLQQSGAELVKPGASVKLSCTASGFNIKDTYIHWVKQRPEQGLEWIGRIDPATGNTEYDPKFQGKATITADTSSNTAYLHLSSLTSEDTAVYYCARGYYGSSYPPWFAYWGQGTLVTVSAGGGGSGGGGSGGGGSDIVMTQSHKFMSTSVGDRVSITCKASQDVGSAVAWYQQKPGQSPKLLIYWASTRHTGVPDRFTGSGSGTDFTLTISNVQSEDLADYFCQQYSSYPLTFGAGTKLELK
notes: as for B1
Turning to B9, in test [5], the binding result is listed as “binds”.

B10: CD73 specific antibody (antibody, V domains shown)
VH: EVQLQQSGAELVKPGASVKLSCTASGFNIKDTYIHWVKQRPEQGLEWIGRIDPATGNTEYDPKFQGKATITADTSSNTAYLHLSSLTSEDTAVYYCARGYYGSSYPPWFAYWGQGTLVTVSA
VL: DIVMTQSHKFMSTSVGDRVSITCKASQDVGSAVAWYQQKPGQSPKLLIYWASTRHTGVPDRFTGSGSGTDFTLTISNVQSEDLADYFCQQYSSYPLTFGAGTKLELK
notes: also called CD73 VH
Take B10: the binding result in test [7] is recorded as “binds”.

B11: CD142 specific antibody (antibody, V domains shown)
VH: QVQLKQSGPGLVQPSQSLSITCTVSGFSLSNYGVHWVRQSPGKGLEWLGVIWSGGSTDYNVAFISRLIITKDNSKSQVFLKMNSLQADDTAIYFCARTTGSVFNAMDHWGQGTSVTVSS
VL: QIVLTQSPALMSASPGEKVTMTCSASSSVTYMYWYQQKPRSSPKPWIYLTSNLASGVPARFSGSGSGTSYSLTISSVEAEDAATYYCQQWSSNPLTFGAGTKLELK
notes: also called CD142 VH
Regarding B11, the binding result in test [8] is “binds”.

B12: CD66c specific CAR sequence VH-linker-VL (scFv)
scFv: QVTLKESGPGILKPSQTLSLTCSFSGFSLSTSGMGVGWIRQPSGKSLEWLAHIWWNDERYYNPSLKNQLTISKDTSRNQVFLKITSVDTADTATYYCARSPRGYFDYWGHGTTLTVSSGGGGSGGGGSGGGGSDIVMTQSQKFMSTSVGDRVSVTCKASQNVVTNVAWYQQTPGQSPKALIYSASYRYSGVPDRFSGSGSGTDFTLTISNVQSGDLAEYFCQQYNSYPLTFGAGTKLELK
notes: as for B1
Take B12: the binding result in test [1] is “binds”.

B13: TSPAN8 specific CAR sequence VL-linker-VH (scFv)
scFv: DIQMTQSPASLSASLEEIVTITCQASQDIGNWLSWYQQKPGKSPQLLIYGATSLADGVPSRFSGSRSGTQYSLKISRLQVEDIRIYYCLQAYSAPWTFGGGTKLELKGGGGSGGGGSGGGGSEVKLLESGGGLVQPGGSMRLSCAASGFTFTDFYMNWIRQPAGKAPEWLGFIRNKASGYTTEYNPSVKGRFTISRDNTQNMLYLQMNTLRAEDTATYYCARAHSYYGYDYFDYWGQGVMVTVSS
notes: as for B1
B13: the binding result in test [6] is “binds”.
